Laboratory results: PMC4072576 (Molecular Biology of the Cell, 2014)

B1: His-ctxI (recombinant N-terminal His-tagged cortexillin I) (natural protein)
chain: MAGKDWEIVQEKAFTAWVNSVLDKRGEKISDVGKDLSDGVKLIFFLELISSKKFNKKYDFEPKARINMIQNVALALKFLDEELKIKVQGIGSEDFVDNNKKMILGFLWTLYRKYRIAVISEGDKSSEEGLLLWCKNTTTGYDGVNITSFTKSFRDGLAFLALSHKFEPESFKFQEFEAMDPIARLNAAFDFAEKGLGVPKLLEAEEVMRGTTDERSLVLYTSLFFHAYRAKEEKARLESSKNEMANRLAGLENSLESEKVSREQLIKQKDQLNSLLASLESEGAEREKRLRELEAKLDETLKNLELEKLARMELEARLAKTEKDRAILELKLAEAIDEKSKLEQQIEATRIRGAAEAQGLGLLRKNLDTHVHDLLKWQKLTMENSSSSSIDDQIIVEVSGLPFGEQVKHLATKLEAENLAIMKLLNQKEDDLKAQKLKSSKSKK
B2: His-ctxII (recombinant N-terminal His-tagged cortexillin II) (natural protein)
chain: MDLNKEWEKVQEMAFTSWVNSVLEKRGCDKISDVSTDLSDGVKLIYFLESVSGKKFPKKFDLEPKTRIMRVQNLHLAMLFIDEDLKIKVQGVAAEEFVDNNKKMILGFLWTLYRKYRISVINEGDKSSEEGLLAWCKKTTEGYNNVNITGFKSSFRDGHGFLALAHKYDPTVFKYDEYEGHDNIARLNAAFDFAEKGLGIPKLLEAESLSKGNVDERSIVLYTSLFFHAFRAKEEREALEASQNSLNNKLASLEQSLEGEKHSQEELVKQKKDLEDALNKIREQNDNRNSRITDLQSKIDDALRGLDDEKLAKLDLESRLAKCEKDKAILELKLAEILDEKDRLEKKIDEDKKRAEAERLGLGLIRQHLAAQFSDIHKWQSFLEHPETVPYTGTPVDLDSELSSLSFEEQAKKLASKLESENILIEKYLNGKEEAKAAAKK

Biological target: F-actin (rabbit muscle actin) (rabbit, UniProt P68135 1-377)
Assay: co-sedimentation

Row | Binder | Kd | stoichiometry N | binding result
1 | B1 | ~200 nM | ~4 actin subunits per ctxI homodimer | 
2 | B2 |  |  | binds
